The chains are these.
B1: chicken PD-1 protein (receptor)
chain: MALGTSRTMWDSTEAALVVLCVLLLCCNPPLAGCHQVTLFPATLTRPAGSSATFICNISMENSSLEFNLNWYQKTNNSNPQKIAGIIRNIPQKKMEKYRLFNNTPVFKMEILNLHQNDSGFYYCGLITFSRSDKVVESSHSQLVVTEAPEKTNTIDEPSEEESSPPDHIKAVLLGTLLLAGVIVLLLFGYIIINNRRADVQKPSSGNTLAEVKPPVVPVPTVDYGVLEFQRDPHSQVPLETCPAEQTEYATIVFPEEKPITPERGKRHKDERTWQLPSQPC
modifications: labeled using the BLUE-NHS protein labeling kit (NanoTemper)

The target of test [1] is B1. As to the kind of experiment: MST.
Test [2] addresses chicken PD-L1 protein (chicken). As to the kind of experiment: MST.

In test [1], DAGLYHCLIEYGGADYKTINLK [peptide gDK2-3] yielded a Kd of 9.73 nM.
In test [2], B1 had a Kd of 2.65 nM.

In general, Kd refers to the concentration at which binding is half-saturated. The low end stands for a tighter complex, the high end for a looser complex.

The values above are taken from article PMC11533547 (Poultry Science, 2024).
